B1: human factor H, full length (other, UniProt P08603 19-1231, looked up)
chain: EDCNELPPRRNTEILTGSWSDQTYPEGTQAIYKCRPGYRSLGNVIMVCRKGEWVALNPLRKCQKRPCGHPGDTPFGTFTLTGGNVFEYGVKAVYTCNEGYQLLGEINYRECDTDGWTNDIPICEVVKCLPVTAPENGKIVSSAMEPDREYHFGQAVRFVCNSGYKIEGDEEMHCSDDGFWSKEKPKCVEISCKSPDVINGSPISQKIIYKENERFQYKCNMGYEYSERGDAVCTESGWRPLPSCEEKSCDNPYIPNGDYSPLRIKHRTGDEITYQCRNGFYPATRGNTAKCTSTGWIPAPRCTLKPCDYPDIKHGGLYHENMRRPYFPVAVGKYYSYYCDEHFETPSGSYWDHIHCTQDGWSPAVPCLRKCYFPYLENGYNQNYGRKFVQGKSIDVACHPGYALPKAQTTVTCMENGWSPTPRCIRVKTCSKSSIDIENGFISESQYTYALKEKAKYQCKLGYVTADGETSGSITCGKDGWSAQPTCIKSCDIPVFMNARTKNDFTWFKLNDTLDYECHDGYESNTGSTTGSIVCGYNGWSDLPICYERECELPKIDVHLVPDRKKDQYKVGEVLKFSCKPGFTIVGPNSVQCYHFGLSPDLPICKEQVQSCGPPPELLNGNVKEKTKEEYGHSEVVEYYCNPRFLMKGPNKIQCVDGEWTTLPVCIVEESTCGDIPELEHGWAQLSSPPYYYGDSVEFNCSESFTMIGHRSITCIHGVWTQLPQCVAIDKLKKCKSSNLIILEEHLKNKKEFDHNSNIRYRCRGKEGWIHTVCINGRWDPEVNCSMAQIQLCPPPPQIPNSHNMTTTLNYRDGEKVSVLCQENYLIQEGEEITCKDGRWQSIPLCVEKIPCSQPPQIEHGTINSSRSSQESYAHGTKLSYTCEGGFRISEENETTCYMGKWSSPPQCEGLPCKSPPEISHGVVAHMSDSYQYGEEVTYKCFEGFGIDGPAIAKCLGEKWSHPPSCIKTDCLSLPSFENAIPMGEKKDVYKAGEQVTYTCATYYKMDGASNVTCINSRWTGRPTCRDTSCVNPPTVQNAYIVSRQMSKYPSGERVRYQCRSPYEMFGDEEVMCLNGNWTEPPQCKDSTGKCGPPPPIDNGDITSFPLSVYAPASSVEYQCQNLYQLEGNKRITCRNGQWSEPPKCLHPCVISREIMENYNIALRWTAKQKLYSRTGESVEFVCKRGYRLSSRSHTLRTTCWDGKLEYPTCAKR
notes: mature; In the serum assays (C3b deposition, hemolysis) the FH is that of normal human serum; also called FH; full length FH

Columns and labels:
[1] = molecular target: B1; assay: cell-based or functional assay
[2] = molecular target: T1, recombinant human FH fragment CCP 18-20 (human, UniProt P08603 1046-1231); assay: SPR (Biacore T200), mAb captured on ProtA or ProtG chip, FH CCP18-20 flowed over, 1:1 model
T1 construct: domain: CCP 18-20; also called fragment of FH comprised of domain 18-20
T1 sequence (looked up): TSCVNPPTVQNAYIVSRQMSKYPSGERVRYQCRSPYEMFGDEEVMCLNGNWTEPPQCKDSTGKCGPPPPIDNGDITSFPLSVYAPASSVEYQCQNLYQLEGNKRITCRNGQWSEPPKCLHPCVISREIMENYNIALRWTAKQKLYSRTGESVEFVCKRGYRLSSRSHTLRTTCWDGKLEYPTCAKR
Protocol: (§1) Surface plasmon resonance (SPR) experiments were performed using a BiaCore T200 (GE Healthcare) and CM5 sensor chips (GE Healthcare) in accordance with the manufacturer's instructions. In short, to determine its affinity, anti-FH.07, anti-FHR-1 3B4 or anti-FHR-1 8E4 were captured onto a ProtA or ProtG coupled chip and either full length FH or a fragment of FH comprising domain 18-20 was flown over the captured moAB at decreasing concentrations.

[3] = molecular target: B1; assay: SPR (Biacore T200), mAb captured on ProtA or ProtG chip, full length FH flowed over, 1:1 model
Protocol: as §1

[4] = molecular target: T2, recombinant human FH fragment CCP 19-20 (human, UniProt P08603 1107-1231); assay: competition ELISA: mAb captured on RM-19 coated plate, FH-bt mixed with unlabelled CCP 19-20
T2 construct: domain: CCP 19-20
T2 sequence (looked up): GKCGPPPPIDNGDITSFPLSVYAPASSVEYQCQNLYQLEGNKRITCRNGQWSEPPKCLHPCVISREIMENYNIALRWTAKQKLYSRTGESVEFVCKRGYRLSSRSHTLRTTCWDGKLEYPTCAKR
Protocol: (§2) The location of the epitope of anti-FHR-1 mAbs was determined using recombinant human FH fragments composed of multiple CCP domains (15-18, 15-19, 18-20 or 19-20). In short, anti-FHR-1 mAbs were captured on a RM-19 coated microtiterplate to assure optimal binding conformation. Next, biotinylated FH, mixed with a 100-fold higher concentration of the indicated unlabeled recombinant FH-fragments, was incubated on the plate for 1 hour. Binding of biotinylated FH was determined by incubation with 0.01% (v/v) streptavidin conjugated with poly-HRP, in HPE for 30 min. The ELISA was further developed as described above. To determine whether the anti-FHR-1 mAbs competed with anti-FH.07 for the binding of FH, a similar set-up was used. In short, mAbs were directly coated to the plate and binding of biotinylated FH (FH-bt) in the absence or presence of a 10-fold higher concentration of indicated mAbs was assessed by ELISA as described above.

[5] = molecular target: B1; assay: SPR, mAb captured on a ProtA or ProtG chip, full length FH flowed over, 1:1 binding model
Protocol: as §1

[6] = molecular target: T3, recombinant human FH fragment CCP 15-18 (human, UniProt P08603 868-1104); assay: competition ELISA: mAb captured on RM-19 coated plate, FH-bt mixed with 100-fold excess of unlabelled CCP 15-18
T3 construct: domain: CCP 15-18
T3 sequence (looked up): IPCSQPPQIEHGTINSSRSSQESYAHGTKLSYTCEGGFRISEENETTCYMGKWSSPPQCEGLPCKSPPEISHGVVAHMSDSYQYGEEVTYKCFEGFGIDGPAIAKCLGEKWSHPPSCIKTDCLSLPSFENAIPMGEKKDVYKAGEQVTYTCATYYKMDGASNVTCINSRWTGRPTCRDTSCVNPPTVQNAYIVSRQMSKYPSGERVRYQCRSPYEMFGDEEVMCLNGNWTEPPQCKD
Protocol: as §2

[7] = molecular target: T4, recombinant human FH fragment CCP 15-19 (human, UniProt P08603 868-1165); assay: competition ELISA: mAb captured on RM-19 coated plate, FH-bt mixed with 100-fold excess of unlabelled CCP 15-19
T4 construct: domain: CCP 15-19
T4 sequence (looked up): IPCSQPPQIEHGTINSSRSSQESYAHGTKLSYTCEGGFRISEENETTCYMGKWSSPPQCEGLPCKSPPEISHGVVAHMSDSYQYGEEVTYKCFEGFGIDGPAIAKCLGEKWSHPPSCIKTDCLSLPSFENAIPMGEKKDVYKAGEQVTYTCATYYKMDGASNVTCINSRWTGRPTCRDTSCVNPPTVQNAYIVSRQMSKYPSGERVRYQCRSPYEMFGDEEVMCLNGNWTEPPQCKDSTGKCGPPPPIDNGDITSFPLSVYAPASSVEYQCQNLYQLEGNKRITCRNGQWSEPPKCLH
Protocol: as §2

[8] = molecular target: T1, recombinant human FH fragment CCP 18-20; assay: competition ELISA: mAb captured on RM-19 coated plate, FH-bt mixed with 100-fold excess of unlabelled CCP 18-20
Protocol: as §2

[9] = molecular target: B1; assay: competition ELISA: mAb captured on RM-19 coated plate, FH-bt mixed with excess unlabelled full length FH; % of FH-bt binding without competitor
Protocol: as §2

C3b = molecular target: T5, C3b (UniProt P01024 23-667; P01024 749-1663, limits assumed); assay: SPR (Biacore T200), C3b amine-coupled to CM5 chip, FH alone injected (10-0.01953 µM), 37 °C, equilibrium analysis; FH alone, no Fab′
T5 construct: C3b has two chains (beta and alpha') derived from C3; also called purified C3b (Complement Technologies)
T5 sequence (P01024 23-667 limits assumed, chain 1 of 2): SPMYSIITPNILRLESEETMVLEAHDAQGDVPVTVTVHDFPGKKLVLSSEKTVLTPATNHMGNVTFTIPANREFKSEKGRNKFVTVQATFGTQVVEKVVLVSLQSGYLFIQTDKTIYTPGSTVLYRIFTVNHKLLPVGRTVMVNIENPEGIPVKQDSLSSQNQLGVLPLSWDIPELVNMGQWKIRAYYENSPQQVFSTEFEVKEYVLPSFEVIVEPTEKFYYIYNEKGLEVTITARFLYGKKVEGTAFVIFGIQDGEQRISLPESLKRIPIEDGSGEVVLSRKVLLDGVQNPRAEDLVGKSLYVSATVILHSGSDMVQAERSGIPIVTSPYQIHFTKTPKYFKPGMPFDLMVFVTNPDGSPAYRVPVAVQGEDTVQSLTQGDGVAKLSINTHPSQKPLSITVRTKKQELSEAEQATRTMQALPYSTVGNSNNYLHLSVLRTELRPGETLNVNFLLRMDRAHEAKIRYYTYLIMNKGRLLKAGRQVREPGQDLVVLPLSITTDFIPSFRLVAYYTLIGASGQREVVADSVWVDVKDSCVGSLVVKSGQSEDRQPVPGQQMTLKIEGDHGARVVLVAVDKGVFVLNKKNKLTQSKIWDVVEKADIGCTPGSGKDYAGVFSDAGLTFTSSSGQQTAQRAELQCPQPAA
T5 sequence (P01024 749-1663 limits assumed, chain 2 of 2): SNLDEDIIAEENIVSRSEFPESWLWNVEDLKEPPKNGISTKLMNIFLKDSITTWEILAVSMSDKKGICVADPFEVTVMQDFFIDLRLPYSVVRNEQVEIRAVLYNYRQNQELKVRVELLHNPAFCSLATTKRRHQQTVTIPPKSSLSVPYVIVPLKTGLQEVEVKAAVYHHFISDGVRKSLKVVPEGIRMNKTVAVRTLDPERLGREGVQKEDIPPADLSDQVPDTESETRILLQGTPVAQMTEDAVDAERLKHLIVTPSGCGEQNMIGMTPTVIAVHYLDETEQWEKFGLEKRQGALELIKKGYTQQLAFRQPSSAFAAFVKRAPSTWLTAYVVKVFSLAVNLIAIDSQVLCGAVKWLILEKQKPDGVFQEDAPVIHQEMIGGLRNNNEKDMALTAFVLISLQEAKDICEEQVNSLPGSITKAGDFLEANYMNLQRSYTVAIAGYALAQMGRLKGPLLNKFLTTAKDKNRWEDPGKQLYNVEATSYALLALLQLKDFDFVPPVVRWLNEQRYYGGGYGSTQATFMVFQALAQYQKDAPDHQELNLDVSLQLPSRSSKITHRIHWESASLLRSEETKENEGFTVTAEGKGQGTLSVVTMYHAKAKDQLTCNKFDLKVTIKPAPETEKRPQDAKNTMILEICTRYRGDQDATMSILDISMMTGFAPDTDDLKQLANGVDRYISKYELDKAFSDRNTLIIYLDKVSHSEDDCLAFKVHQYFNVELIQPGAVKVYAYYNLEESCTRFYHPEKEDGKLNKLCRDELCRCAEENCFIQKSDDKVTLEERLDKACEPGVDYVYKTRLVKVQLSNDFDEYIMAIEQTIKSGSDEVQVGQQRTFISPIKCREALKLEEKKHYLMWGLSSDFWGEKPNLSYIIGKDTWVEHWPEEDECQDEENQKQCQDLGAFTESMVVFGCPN
Protocol: Binding of FH to C3b in the presence of the anti-FH moAbs was determined by surface plasmon resonance using a Biacore T200 instrument (GE Healthcare, Little Chalfont, UK). Purified C3b (Complement Technologies) was immobilized onto a flow cell of a CM5 Biacore Sensor Chip (GE Healthcare) using standard amine coupling. The remaining flow cell was used as reference surface and prepared by performing a coupling reaction without the addition of any protein. A response of 2000 response units (RUs) was obtained after coupling with C3b. SPR experiments were performed at 37° C. using a flow rate of 10 μl/min and in phosphate buffered saline pH 7.4 (PBS, Orphi Farma) supplemented with 0.01% (w/v) Tween-20 (Merck) (PBS-T).
To determine the effect of the antibodies without interference of possible cross-linking via the moAb, recombinantly produced Fab′ fragments of the moAbs were used. Fab′ fragments were mixed with plasma purified FH (pdFH). […] Each Fab′ fragment was also injected without addition of FH to determine any interactions of the Fab′ fragments with the surfaces. The pdFH injection was followed by a dissociation of 60 seconds and surface was regenerated between each cycle by a single injection of 1 M NaCl (Merck).
Data was analyzed using Scrubber 2 (Biologic Software) affinities were determined by equilibrium analysis.

Binder	IC50 (nM), Hemolytic assay [1] [nM]	IC50 (nM), LPS C3b dep. assay [1] [nM]	Kd [2] [nM]	koff [2] [s⁻¹]	kon [2] [M⁻¹ s⁻¹]	Kd [3] [nM]	koff [3] [s⁻¹]	kon [3] [M⁻¹ s⁻¹]	binding result [4]	Kd [5] [nM]	binding result [6]	binding result [7]	binding result [8]	binding result [9]	Kd (C3b) [nM]
anti-FH.07 (antibody, V domains shown) VH: QVQLQQSGPGLVQPSQSLSITCTVSDFSLARYGVHWIRQSPGKGLEWLGVIWSGGTADYNAAFISRLNINKDNSKSQVFFKMNSLQANDTAIYYCARNFGNYAVDYWGQGTS VL: QIVLSQSPTFLSASPGEKVTVTCRASSSVKYMHWYQQKPGASPKPWIFATSNLASGVPARFSGSGSGTSYSLTISRVEAEDAATYYCQQWSIIPPTFGNGTKLELK	153	38.8	0.32	0.00027	833000	29.7	0.000181	6090	no binding	–	–	–	–	–	–
anti-FHR-1.11E1 (antibody, V domains shown, Mouse monoclonal from a hybridoma, raised against recombinant human FHR-1) VH: QVQLKQSGPGLVQPSQSLSITCTVSGFSLTNYGVHWVRQPPGKGLEWLGVIWSGGNTDYNAAFISRLSISKDNSKSQVFFKMNSLQADDTAIYYCAKNGDYGYTMDYWGQGTSVTVSS VL: DVVMTQTPLSLPVSLGDQASISCRSSQSLVHSNGNTYLHWYLQKPGQSPKLLIYKLSNRFSGVPDRFSGSGSGTDFTLKISRVEAEDLGVYFCSQSTHVPFTFGSGTKLEIK	–	25	–	–	–	–	–	–	no binding	–	–	–	–	–	–
anti-FHR-1.3B4 (antibody, V domains shown, Mouse monoclonal from a hybridoma, raised against recombinant human FHR-1; also called aFHR-1 3B4) VH: QVQLRQSGPGLVQPSQSLSITCTVSGFSLTNYGVYWVRQSPGKGLEWLGVIWSGGTTDYSAAFISRLSISKDNSKSQVFFKMNSLQADDTAIYYCARNFGNYAMDYWGQGTSVTVSS VL: QIVLSQSPTILSASPGEKVTMTCRASSSVTYMHWYQQKPGSSPKPWIYATSNLASGVPARFSGSGSGTSYSLTISRVEAEDAATYYCQQRSSSNPLTFGAGTKLELK	94	38.4	0.00544	1.27e-05	2.39e+06	5.8	9.1e-05	15800	no binding	5.77	–	–	–	–	–
FHR-1.14C4 (antibody, V domains shown, Mouse monoclonal from a hybridoma, raised against recombinant human FHR-1) VH: EVQLQQSGPELEKPGASVKISCKASGYSFTGYNMHWVKQSNGTSLEWIGKIDPYYGDTSYNQRFKGKATLTVDKSSSTAYMQLKSLTSEDSAVYYCARAFYRDYALDYWGRGTSVTVSS VL: DIVMTQSPSSLTVTAGEKVTMSCKSSQSLFNSGNQKNYLTWYQQKPGQPPKLLIYWASTRESGVPDRFTGSGSGTDFTLTISSVQAEDLAVYYCQNDYSYPLTFGAGTKLELK	–	–	–	–	–	–	–	–	no binding	–	binds	binds	binds	binds	–
B1	–	–	–	–	–	–	–	–	–	–	–	–	–	–	6000

Reference: US20220356235A1 (STICHTING SANQUIN BLOEDVOORZIENING, published 2022)
